Test results taken from US20200164068A1, “MODULATORS OF TUMOR IMMUNE RESISTANCE FOR THE TREATMENT OF CANCER” (DEUTSCHES KREBSFORSCHUNGSZENTRUM STIFTUNG DES ÖFFENTLICHEN …, priority 2016, published 2020).

B1: CCR9-specific shRNA (nucleic acid)
DNA: ACCGGGCCAGTGGAGGTCTTTGTTCTGTTAATATTCATAGCAGAACAAGGACCTTCACTGGCTTTT

Assays:
MCF7 cells = assay: Chromium-release cytotoxicity assay, MCF7 cells and survivin-specific CTL; type: cell-based; details: MCF7 cells pre-treated with 250 ng/ml PTX for 1 h, compared to CCR9 gene knockdown
Experimental: (§1) Tumor cells were transfected with the described siRNAs using RNAiMAX or with pCMV6-AC-His-CCR9 encoding vector and empty control vector (OriGene, Rockville, USA) using TransIT-LT1. 72 h later, transfected cells were harvested for chromium-release cytotoxicity assay as detailed in Supplementary Methods. For CCR9 blockade using pertussis toxin (PTX), […] tumor cells were incubated with 250 ng/ml of PTX (Sigma Aldrich) for 1 h at 37° C. before labeling with radioactive chromium.

CCR9+ tumor cells = assay: Transwell migration assay toward CCL25; type: cell-based
CCL25 = assay: ELISA of CCL25 levels in tumor cell lysates; type: cell-based; details: stable knockdown
M579-A2 tumor cells = assay: Chromium-release cytotoxicity assay, M579-A2 melanoma cells and TIL 209; type: cell-based, human; details: stable CCR9 knockdown M579-A2 versus shControl
Excerpt: MCF7, MDA-MB-231 (breast cancer), and PANC-1 pancreatic cancer cells were acquired from American Type Cell Culture (Wesel, Germany). MCF7luc cells were generated by electroporation with pEGFP-Luc plasmid and expansion of sorted GFP+ clones in selection medium containing […] G418 (Gibco, UK). M579-A2 melanoma culture was established from a patient and stably transfected with HLA-A2 expression construct as described before (Machlenkin et al, 2008). For stable CCR9 knockdown, lentiviral particles were produced using the pRSI9-U6-TagRFP-2APuro lentiviral expression vector (Cellecta) that contained either the CCR9-specific shRNA hairpin ([…]: SEQ ID NO. 5) or control nontargeting shRNA. Viruses were packaged using the psPAX2 and pMD2.G packaging plasmids (Addgene), and tumor cell lines were transduced with the viral particles as per the manufacturer's protocol.
as §1

HLA-A2 = assay: Surface HLA-A2 expression on M579-A2 cells; type: cell-based, human; details: M579-A2 upon CCR9 knockdown
M579-A2 tumors = assay: In vivo M579-A2 tumor growth in NSG mice with adoptive TIL 209 transfer
Experimental: Appropriate approval for animal work was obtained from the regulatory authorities (Regierungsprasidium, Karlsruhe) before the start of the experiment. Four- to six-week-old female NSG mice were ordered from the Animal Core Facility at DKFZ, Heidelberg. Mice were subcutaneously injected with 5×10^5 cells (in 100 μl of matrigel per injection) of each CCR9-M579-A2 (transduced with CCR9-specific shRNA) and CCR9+M579-A2 (transduced with non-targeting control shRNA) cell lines in the left and the right flank, respectively. Following this, at Day 2 and Day 9, 7 out of the 10 tumor-bearing mice received adoptive transfer of expanded TIL 209 cells intravenously into the tail vein (1×10^7 cells/100 μl PBS/mouse). The remaining three mice were injected with PBS alone to assess tumor growth in the absence of adoptive TIL transfer. Tumor measurements were performed using a digital caliper (Carl Roth) at the indicated time points, and tumor volume was measured using the formula: volume=height*width*width*(n/3).
Differences between test and control groups were analyzed by two-sided Student's t-test. In all statistical tests, a P-value <0.05 was considered significant. Statistical difference between the tumor growth curves in vivo was assessed using the unpaired one-sided Mann-Whitney U-test.

Molecule | Tumor lysis by antigen-specific T cells (MCF7 cells) | Migration of CCR9+ tumor cells toward CCL25 (CCR9+ tumor cells) | CCL25 production by MCF7 breast cancer cells (CCL25) | Immune lysis by tumor-infiltrating lymphocytes (TIL 209) (M579-A2 tumor cells) | Surface HLA-A2 expression (HLA-A2) | Tumor growth kinetic without T cell transfer (M579-A2 tumors; CCR9- versus CCR9+ M579-A2 tumors in NSG mice given PBS alone) | Tumor growth in response to adoptive T cell transfer (M579-A2 tumors; CCR9- versus CCR9+ M579-A2 tumors s.c. in NSG mice, TIL 209 i.v. at Day 2 and Day 9)
pertussis toxin | did not elicit elevated tumor lysis | inhibited the migration |  |  |  |  | 
B1 |  |  | did not affect | more susceptible to immune lysis | no significant difference | No difference | grew significantly slower
